By stoichiometry N is commonly meant the number of molecules, sites or subunits per partner or assembly.

Values joined by “and” are separate entries in the source; they are usually repeats but may differ in a detail not shown here. Equal entries are not always repeated.

In data set [1] the target is T1, CcdB toxin (plasmid F, UniProt P62554 1-101).
T1 construct: source: E. coli strain B462 carrying plasmid pULB2250, purified (Sephacryl S-200, MonoQ, CM-Sepharose)
In words: native MS; CcdB:His6Kis molar ratio 1:4 (Fig. 6D); 100 mM ammonium acetate pH 6.7; lowest protein concentration 5 µM. Conditions: both partners purified.

Data set [2] deals with T1, CcdB toxin. In words: native MS; CcdB:His6Kis molar ratios 2:1, 1:1 and 1:2 (Fig. 6A-C); 100 mM ammonium acetate pH 6.7; lowest protein concentration 10 µM. Particulars: both partners purified.
Data set [3] deals with the molecule itself. The description is as above.
The target of another data set is Kid toxin (plasmid R1) (UniProt P13976). Kind of data set: native MS; Kid:CcdA ratios 2:1, 1:1 and 1:2; 100 mM ammonium acetate pH 6.7; lowest protein concentration 10 µM.
The target in data set [4] is T1, CcdB toxin. Kind of data set: native MS; CcdB:CcdA molar ratios 1:2 and 1:4 (CcdA in excess); 100 mM ammonium acetate pH 6.7; lowest protein concentration 10 µM. Conditions: both partners purified.
For data set [5], the target named is T1, CcdB toxin. In words: native MS; CcdB:CcdA molar ratios 2:1 and 1:1 (CcdB equal to or in excess of CcdA); 100 mM ammonium acetate pH 6.7; lowest protein concentration 10 µM. Particulars: both partners purified.

T1 sequence (P62554 whole entry): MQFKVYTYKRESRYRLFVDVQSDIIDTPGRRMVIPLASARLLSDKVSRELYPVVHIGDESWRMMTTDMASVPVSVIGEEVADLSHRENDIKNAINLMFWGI
Kid toxin (plasmid R1), sequence (P13976 24-133): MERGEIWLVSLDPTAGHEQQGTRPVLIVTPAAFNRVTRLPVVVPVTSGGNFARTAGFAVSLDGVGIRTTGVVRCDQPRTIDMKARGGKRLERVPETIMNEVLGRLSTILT

B1: His6-Kis antitoxin (natural protein, plasmid R1, UniProt P13975 1-85, looked up)
chain: MHTTRLKRVGGSVMLTVPPALLNALSLGTDNEVGMVIDNGRLIVEPYRRPQYSLAELLAQCDPNAEISAEEREWLDAPATGQEEI
notes: also called HisKis; source: purified as described [12]
With B1, the “stoichiometry N” value was 0.5 His6Kis per CcdB (1:2) with CcdB toxin [1], 1 His6Kis per CcdB (2:2) with CcdB toxin [2] and 2 in data set [3].

B2: CcdA antitoxin (natural protein, plasmid F, UniProt P62552 1-72, looked up)
chain: MKQRITVTVDSDSYQLLKAYDVNISGLVSTTMQNEARRLRAERWKAENQEGMAEVARFIEMNGSFADENRDW
notes: source: E. coli strain SG22623 carrying plasmid pKK223CcdA, purified as described previously [35]
As for B2, in the data set with Kid toxin (plasmid R1), the stoichiometry N (CcdA per Kid (1:2)) was found to be 0.5 and the stoichiometry N (CcdA per Kid (2:2)) amounted to 1. In addition, in the data set with CcdB toxin [4], the “stoichiometry N” value is 1 CcdA per CcdB (2:2). In addition, the “stoichiometry N” value in the data set with CcdB toxin [5] was 0.5 CcdA per CcdB (1:2) and 0.5 CcdA per CcdB (2:4).

Values taken from article PMC3460896, “A Common Origin for the Bacterial Toxin-Antitoxin Systems parD and ccd, Suggested by Analyses of Toxin/Target and Toxin/Antitoxin Interactions” (PLoS ONE, 2012).
